Measurements from patent US20210347908A1 (ELPISCIENCE SUZHOU BIOPHARMA, published 2021).
Read-outs that look alike come from different tables or passages of the source.

T1: 6×His tagged C57BL/6 mouse SIRPα ECD recombinant protein (mouse (C57BL/6), UniProt P97797 32-373)
T1 construct: extracellular domain; bought; also called mSIRPα (C57BL/6); mouse SIRPα (C57BL/6) ECD
T1 sequence: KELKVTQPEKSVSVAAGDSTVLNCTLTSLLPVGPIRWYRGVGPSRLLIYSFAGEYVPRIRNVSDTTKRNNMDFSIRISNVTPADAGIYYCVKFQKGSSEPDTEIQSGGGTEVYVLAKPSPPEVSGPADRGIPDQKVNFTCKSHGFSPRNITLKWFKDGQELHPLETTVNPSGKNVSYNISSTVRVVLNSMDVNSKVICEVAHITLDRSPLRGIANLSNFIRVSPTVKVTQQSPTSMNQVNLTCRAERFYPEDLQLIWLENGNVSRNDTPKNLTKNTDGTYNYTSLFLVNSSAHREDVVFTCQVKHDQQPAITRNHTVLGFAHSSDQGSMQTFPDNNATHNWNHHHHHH


Legend:
[1] = molecular target: T2, Fc tagged human SIRPα v2 ECD recombinant protein (human); test: ELISA
T2 construct: range 1-369; cloned range M1-R369 includes the signal peptide; also called hSIRPα V2
How it was run: (§1)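 Readout is OD 450 nm, with EC₅₀ derived from it, after TMB development for 15 min at RT and an HCl stop. Before that, antibodies were bound to coated Fc-tagged human SIRP ECD antigens for 1 h at 37 °C, followed by 1 h at 37 °C with HRP-labelled anti-mouse or anti-human IgG secondary.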

[2] = molecular target: T3, Fc tagged human SIRPβ ECD recombinant protein (human, UniProt O00241 30-371); test: ELISA
T3 construct: range 1-371; cloned range includes the signal peptide; also called hSIRPβ; not shown: human IgG Fc region (hFc) of the pCPC vector
How it was run: as §1

[3] = molecular target: T4, Fc tagged human SIRPγ ECD recombinant protein (human, UniProt Q9P1W8 29-360); test: ELISA
T4 construct: range 1-360; cloned range includes the signal peptide; also called hSIRPγ; not shown: human IgG Fc region (hFc) of the pCPC vector
How it was run: as §1

[4] = molecular target: T4, Fc tagged human SIRPγ ECD recombinant …; test: ELISA; remark: listed apart in the source
How it was run: as §1

[5] = molecular target: 6×His tagged human SIRPα v2 ECD recombinant protein (human); test: SPR (Biacore), antibody captured
Procedure: (§2) Anti-SIRPα chimeric antibodies were characterized for binding affinity against human SIRPα v1, human SIRPα v2 and C57BL/6 mouse SIRPα using Biacore (GE). Briefly the antibodies to be tested were captured to CM5 chip (GE) using Human Antibody Capture Kit (GE). The antigens of 6×His tagged human SIRPα v1, human SIRPα v2 and C57BL/6 mouse SIRPα ECD recombinant proteins were serially diluted for multiple doses and injected at 30 μl/min for 180 s. Buffer flow was maintained for dissociation of 400 s. 3 M MgCl₂ was used for chip regeneration. The association and dissociation curves were fit with 1:1 binding model, and the Ka/Kd/KD values for each antibody were calculated.

[6] = molecular target: T5, 6×His tagged human SIRPα v1 ECD recombinant protein (human, UniProt P78324 31-373); test: SPR (Biacore), antibody captured
T5 construct: extracellular domain; bought; also called hSIRPα V1 (SPR antigen)
Procedure: as §2

[7] = molecular target: T1, 6×His tagged C57BL/6 mouse SIRPα ECD …; test: SPR (Biacore), antibody captured
Procedure: as §2

[8] = molecular target: T4, Fc tagged human SIRPγ ECD recombinant …; test: ELISA; remark: listed apart in the source
How it was run: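 OD 450 nm readings gave EC₅₀ values after a TMB reaction of 15 min at room temperature, stopped with 1N HCl. Before that, antibodies were bound to antigen-coated wells for 1 h at 37° C. An HRP-labelled anti-mouse or anti-human IgG secondary was then applied for a further 1 h at 37° C.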

[9] = molecular target: T6, biotin labeled soluble human SIRPα v1 ECD recombinant protein (human, UniProt P78324 31-373, biotin labeled); test: competitive ELISA; competitor 022
T6 construct: extracellular domain
How it was run: (§3)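 Epitope binning: OD 450 nm from TMB/HRP-streptavidin detection yielded a competition ratio. Biotin-labelled soluble human SIRPα v1 ECD had been co-incubated with excess competitor antibody over coated antibody; HRP-SA step 1 h at 37 °C, TMB 15 min then HCl stop.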

[10] = molecular target: T6, biotin labeled soluble human SIRPα v1 …; test: competitive ELISA; competitor 050
How it was run: as §3

[11] = molecular target: T6, biotin labeled soluble human SIRPα v1 …; test: competitive ELISA; competitor 055
How it was run: as §3

[12] = molecular target: T6, biotin labeled soluble human SIRPα v1 …; test: competitive ELISA; competitor HEFLB
How it was run: as §3

Binder	EC50 [1] [nM]	EC50 [2] [nM]	EC50 [3] [nM]	EC50 [4] [nM]	Kd [5] [nM]	koff [5] [s⁻¹]	kon [5] [M⁻¹ s⁻¹]	Kd [6] [nM]	koff [6] [s⁻¹]	kon [6] [M⁻¹ s⁻¹]	binding result [7]	EC50 [8] [nM]	% Competition [9] [%]	% Competition [10] [%]	% Competition [11] [%]	% Competition [12] [%]
chimeric antibody 022c (antibody, V domains shown) VH: QIQLVQSGPELKKPGETVKISCKASGYTFTDYAMHWVKQAPGKGLKWMGWKNTETGESTYAEDFKGRFAFFLETSASTAYLQINNVKNEDTATYFCARGGYGSNYVMDYWGQGTSVIVSS VL: DIQMTQSSSSFSVSLGDRVTITCKASEDIYNRLAWYQQKPGNAPRLLISGATSLETGVPSRFSGSGSGKDYTLSITSLQTEDVATYYCQQYWNSPRTFGGGTKLEIK	0.11	0.08	18.7	18.7	25.6	0.00144	56100	5.9	0.00074	125000	no binding	–	–	–	–	–
chimeric antibody 050c (antibody, V domains shown) VH: QIQLVQSGPELKKPGETVKISCKASGYTFTHYSMHWVKQAPGKGLKWMGWINTETAEPTYVDDFKGRFAFSLEASASTAFFQINNLKNEDTATYFCARGGLRQGDYWGQGTTLTVSS VL: QIVLTQSPPIMSASPGEKVTLTCSATSSVSASYLYWFQQKPGSSPKLWIYSTSNLASGVPARFSGSGSGTSYSLTISNMEPADAASYFCHQWSSYPYTFGGGTKLEIK	0.1	0.08	0.27	0.27	4.72	0.000529	112000	3.07	0.000774	252000	no binding	–	–	–	–	–

Stronger by EC50 [1], values ahead:

EC50 [1] [nM]	EC50 [2] [nM]	EC50 [3] [nM]	EC50 [4] [nM]	Kd [5] [nM]	koff [5] [s⁻¹]	kon [5] [M⁻¹ s⁻¹]	Kd [6] [nM]	koff [6] [s⁻¹]	kon [6] [M⁻¹ s⁻¹]	binding result [7]	EC50 [8] [nM]	% Competition [9] [%]	% Competition [10] [%]	% Competition [11] [%]	% Competition [12] [%]	Binder
0.09	0.08	0.05	0.05	–	–	–	–	–	–	–	0.15	6	5	1	27	reference antibody KWAR23 (antibody, V domains shown) VH: EVQLQQSGAELVKPGASVKLSCTASGFNIKDYYIHWVQQRTEQGLEWIGRIDPEDGETKYAPKFQDKATITADTSSNTAYLHLSSLTSEDTAVYYCARWGAYWGQGTLVTVSS VL: QIVLTQSPAIMSASPGEKVTLTCSASSSVSSSYLYWYQQKPGSSPKLWIYSTSNLASGVPARFSGSGSGTSYSLTISSMEAEDAASYFCHQWSSYPRTFGAGTKLELK
0.08	0.08	0.11	0.11	–	–	–	–	–	–	–	0.22	8	7	0	25	reference antibody 29-AM4-5 (antibody, V domains shown) VH: EVQLVESGGGLVQPGGSLRLSCAASGFNISYYFIHWVRQAPGKGLEWVASVYSSFGYTYYADSVKGRFTISADTSKNTAYLQMNSLRAEDTAVYYCARFTFPGLFDGFFGAYLGSLDYWGQGTLVTVSS VL: DIQMTQSPSSLSASVGDRVTITCRASQSVSSAVAWYQQKPGKAPKLLIYSASSLYSGVPSRFSGSRSGTDFTLTISSLQPEDFATYYCQQAVNWVGALVTFGQGTKVEIK
